Patent US20250027068
Changes are numbered by the printed parent chain.

B1: PRT-338 (protein)
chain: MTITSVWTKGVTPPTPEDFRENNEDVLHAPYLANQGWYDITKAFDGKDNLLCGAATAGNMLHWWFDQNKEEIERYLKKHPEKQKIIFNNQELFDVKAAIDTKDSQTNSKLFNYFRDKAFPNLSARQLGVMPDLVLDMFINGYYLNLGKTQSTDVNRPYQDKDKRGGIFDAVFTRGDQTTLLTARHDLKNKGLNEISDLIKQELTEGKALALSHTYANVSINHVINLWGADFDAEGNLEAIYVTDSDANASIGMKKYFVGRNAHGKVAISAKKIEGDNIGAQVLGLFTLSLGQDIWQKLS
B2: PRT-346 (protein)
chain: MSQTEDSESLQRLRDIEDFQAEKEMQNVVYTKWLDGVDVKDHDFRKIVDGNSAYYATPLLNGRGFYDINKDFNRDSDKCAAAVAANMFHYWLDINRDNVDRFLRQNPEKHGIIELPDGQLKLSDFLNTYESDHGYRDKSKLFDFISNNFNGPVWTDKLLDNYINGYAYNYKYGRTIEDPTKNTSKINFFKEVFNEKILTNNHSIRNQNEFSVLLSEALYTGKAIGLSYGPAGLRHSLGHIISVWGADLDADGNVVAIYVTDSDDKKLTIGDERVGLKRYKISTDDENRLRLTAYEETHNTGGQVRGLWTLDTGKYAWADYFDKTEQTGTDQAEQ
B3: PRT-354 (protein)
chain: B2 chain with E24K, S52E, N147E, F210L, V304I
B4: PRT-362 (protein)
chain: MSQTEDSESLQRLRDIEDFQAEKKKQNVVYTKWLDGVDVKDHDFRKIVDGNSAYYATPLLNGRGFYDINKDFNRDSDKCAAAVAANMFHYWLDRNRDNVDRFLRQNPEKHGIIELPDGQLKLSDFLNTYESDDGYRDKSKLFDFISENFNGPVWTDKLLDNYINGYAYNSKYGRTIEDPTKNTSKINFFKEVFNEKILTNNHSIRNQNEFSVLLIEALYTGKAIGLSYGPAGLRHGLGHIISVWGADLDADGNVVAIYVTDSDDKKLTIGDERVGLKRYKISTDDEGRLRLTAYEETHNTGGQIRGLWTLDTGKQAWADYFDKTEQTGTDQAEQ
B5: PRT-370 (protein)
chain: B4 chain with K25D, F65W, S76N, S170Y, P179S, G236S, I304V
B6: PRT-339 (protein)
chain: B1 chain with N88G, N112D, L290T, I294Q
B7: PRT-347 (protein)
chain: B2 chain with F65W
B8: PRT-355 (protein)
chain: B2 chain with E24K, S52E, N147E, T175L, F210L, L233T, V304I
B9: PRT-363 (protein)
chain: B4 chain with K24E, F65W, I304V
B10: PRT-371 (protein)
chain: B4 chain with S76N, S170Y, P179S, G236S
B11: PRT-340 (protein)
chain: B1 chain with N112D, L290T, I294Q
B12: PRT-348 (protein)
chain: B2 chain with E24K, M25D, S52I, F65W, N147E, S215I
B13: PRT-356 (protein)
chain: B2 chain with M25K, I94R, H133D, N287G, Y315Q
B14: PRT-364 (protein)
chain: B4 chain with S52E, S170Y, F210L, I215S, G236S

Molecular target: pooled human IgG (human IgG1,2,3 and 4)

Question: With B1 as the protein, how does the Enzyme Activity Endpoint Assay (purified): Fab′2 read?
Answer: 766 ng/µL

Question: What about the Enzyme Activity Endpoint Assay (purified): Fc of the same protein?
Answer: 203 ng/µL

Question: And the Enzyme Activity Endpoint Assay (purified): IgG?
Answer: 0 ng/µL

Question: And the Enzyme Activity Endpoint Assay (purified): scIgG?
Answer: 287 ng/µL

Question: B2 was tested. Which Enzyme Activity Endpoint Assay (purified): Fab′2 did it give?
Answer: 607 ng/µL

Question: And the Enzyme Activity Endpoint Assay (purified): Fc?
Answer: 217 ng/µL

Question: And the Enzyme Activity Endpoint Assay (purified): IgG?
Answer: 0 ng/µL

Question: What about the Enzyme Activity Endpoint Assay (purified): scIgG of the same protein?
Answer: 246 ng/µL

Question: B3 was tested. Which Enzyme Activity Endpoint Assay (purified): Fab′2 did it give?
Answer: 618 ng/µL

Question: What about the Enzyme Activity Endpoint Assay (purified): Fc of the same protein?
Answer: 213 ng/µL

Question: And the Enzyme Activity Endpoint Assay (purified): IgG?
Answer: 0 ng/µL

Question: What about the Enzyme Activity Endpoint Assay (purified): scIgG of the same protein?
Answer: 233 ng/µL

Question: What does the source list for B4?
Answer: Enzyme Activity Endpoint Assay (purified): Fab′2: 720 ng/µL; Enzyme Activity Endpoint Assay (purified): Fc: 225 ng/µL; Enzyme Activity Endpoint Assay (purified): IgG: 0 ng/µL; Enzyme Activity Endpoint Assay (purified): scIgG: 299 ng/µL

Question: Which Enzyme Activity Endpoint Assay (purified): Fab′2 does the source give for B5 here?
Answer: 654 ng/µL

Question: What about the Enzyme Activity Endpoint Assay (purified): Fc of the same protein?
Answer: 348 ng/µL

Question: And the Enzyme Activity Endpoint Assay (purified): IgG?
Answer: 0 ng/µL

Question: What about the Enzyme Activity Endpoint Assay (purified): scIgG of the same protein?
Answer: 288 ng/µL

Question: B6 was tested. Which Enzyme Activity Endpoint Assay (purified): Fab′2 did it give?
Answer: 721 ng/µL

Question: And the Enzyme Activity Endpoint Assay (purified): Fc?
Answer: 167 ng/µL

Question: What about the Enzyme Activity Endpoint Assay (purified): IgG of the same protein?
Answer: 0 ng/µL

Question: What about the Enzyme Activity Endpoint Assay (purified): scIgG of the same protein?
Answer: 288 ng/µL

Question: Which results are given for B7?
Answer: Enzyme Activity Endpoint Assay (purified): Fab′2: 769 ng/µL; Enzyme Activity Endpoint Assay (purified): Fc: 397 ng/µL; Enzyme Activity Endpoint Assay (purified): IgG: 0 ng/µL; Enzyme Activity Endpoint Assay (purified): scIgG: 309 ng/µL

Question: For B8, which Enzyme Activity Endpoint Assay (purified): Fab′2 is on record?
Answer: 952 ng/µL

Question: And the Enzyme Activity Endpoint Assay (purified): Fc?
Answer: 500 ng/µL

Question: What about the Enzyme Activity Endpoint Assay (purified): IgG of the same protein?
Answer: 0 ng/µL

Question: What about the Enzyme Activity Endpoint Assay (purified): scIgG of the same protein?
Answer: 367 ng/µL

Question: Which Enzyme Activity Endpoint Assay (purified): Fab′2 does the source give for B9 here?
Answer: 838 ng/µL

Question: What about the Enzyme Activity Endpoint Assay (purified): Fc of the same protein?
Answer: 462 ng/µL

Question: And the Enzyme Activity Endpoint Assay (purified): IgG?
Answer: 0 ng/µL

Question: And the Enzyme Activity Endpoint Assay (purified): scIgG?
Answer: 354 ng/µL

Question: Which Enzyme Activity Endpoint Assay (purified): Fab′2 does the source give for B10 here?
Answer: 623 ng/µL

Question: And the Enzyme Activity Endpoint Assay (purified): Fc?
Answer: 373 ng/µL

Question: What about the Enzyme Activity Endpoint Assay (purified): IgG of the same protein?
Answer: 0 ng/µL

Question: What about the Enzyme Activity Endpoint Assay (purified): scIgG of the same protein?
Answer: 295 ng/µL

Question: For B11, which Enzyme Activity Endpoint Assay (purified): Fab′2 is on record?
Answer: 692 ng/µL

Question: What about the Enzyme Activity Endpoint Assay (purified): Fc of the same protein?
Answer: 374 ng/µL

Question: And the Enzyme Activity Endpoint Assay (purified): IgG?
Answer: 0 ng/µL

Question: What about the Enzyme Activity Endpoint Assay (purified): scIgG of the same protein?
Answer: 307 ng/µL

Question: For B12, which Enzyme Activity Endpoint Assay (purified): Fab′2 is on record?
Answer: 736 ng/µL

Question: What about the Enzyme Activity Endpoint Assay (purified): Fc of the same protein?
Answer: 415 ng/µL

Question: What about the Enzyme Activity Endpoint Assay (purified): IgG of the same protein?
Answer: 0 ng/µL

Question: And the Enzyme Activity Endpoint Assay (purified): scIgG?
Answer: 325 ng/µL

Question: For B13, which Enzyme Activity Endpoint Assay (purified): Fab′2 is on record?
Answer: 780 ng/µL

Question: And the Enzyme Activity Endpoint Assay (purified): Fc?
Answer: 418 ng/µL

Question: And the Enzyme Activity Endpoint Assay (purified): IgG?
Answer: 0 ng/µL

Question: What about the Enzyme Activity Endpoint Assay (purified): scIgG of the same protein?
Answer: 289 ng/µL

Question: B14 was tested. Which Enzyme Activity Endpoint Assay (purified): Fab′2 did it give?
Answer: 863 ng/µL

Question: What about the Enzyme Activity Endpoint Assay (purified): Fc of the same protein?
Answer: 439 ng/µL

Question: And the Enzyme Activity Endpoint Assay (purified): IgG?
Answer: 0 ng/µL

Question: What about the Enzyme Activity Endpoint Assay (purified): scIgG of the same protein?
Answer: 334 ng/µL
